Test [1] has as its target rodent α1β3γ2 GABAA receptor on COS7 cells (Rattus norvegicus (alpha1, beta3); …, UniProt P62813;P63079;P18508). In words: immunostaining of cells or tissue.
Test [2] has as its target rodent α1β3 GABAA receptor on COS7 cells (Rattus norvegicus, UniProt P62813;P63079). In words: immunostaining of cells or tissue.
For test [3], the target named is rodent GABAA receptor β3 subunit alone on COS7 cells (Rattus norvegicus, UniProt P63079). Briefly: immunostaining of cells or tissue.
Chain of rodent GABAA receptor β3 subunit alone on COS7 cells (P63079 26-473): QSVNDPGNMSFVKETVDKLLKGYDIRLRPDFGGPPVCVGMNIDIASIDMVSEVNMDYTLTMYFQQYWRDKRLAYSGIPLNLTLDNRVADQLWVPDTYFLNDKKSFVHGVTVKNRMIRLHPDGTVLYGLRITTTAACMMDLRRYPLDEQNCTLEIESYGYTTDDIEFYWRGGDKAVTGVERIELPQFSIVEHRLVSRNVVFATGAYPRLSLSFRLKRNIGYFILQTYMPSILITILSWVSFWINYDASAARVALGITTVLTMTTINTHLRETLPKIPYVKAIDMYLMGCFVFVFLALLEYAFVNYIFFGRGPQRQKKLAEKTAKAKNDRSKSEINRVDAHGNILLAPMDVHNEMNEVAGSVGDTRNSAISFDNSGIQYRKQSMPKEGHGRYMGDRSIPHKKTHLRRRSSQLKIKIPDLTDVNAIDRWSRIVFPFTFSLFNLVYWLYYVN
Test [4] concerns the target rodent GABAA receptor γ2 subunit alone on COS7 cells (Rattus norvegicus (paper: rodent), UniProt P18508). Briefly: immunostaining of cells or tissue.
For test [5], the target named is rodent α2β3γ2 GABAA receptor on COS7 cells (Rattus norvegicus (paper: rodent), UniProt P23576;P63079;P18508). In words: immunostaining of cells or tissue.
Test [6] addresses rodent α3β3γ2 GABAA receptor on COS7 cells (Rattus norvegicus (α3 rat; β3, γ2 …, UniProt P20236;P63079;P18508). Briefly: immunostaining of cells or tissue.
The target of test [7] is rodent α4β3γ2 GABAA receptor on COS7 cells (Rattus norvegicus (α4 rat; β3, γ2 …, UniProt P28471;P63079;P18508). Briefly: immunostaining of cells or tissue.
For test [8], the target named is rodent α5β3γ2 GABAA receptor on COS7 cells (Rattus norvegicus (paper: rodent), UniProt P19969;P63079;P18508). In words: immunostaining of cells or tissue.
The target of test [9] is rat α1β3γ2 GABAA receptor on HEK293T cells (Rattus norvegicus, UniProt P62813;P63079;P18508). In words: flow cytometry on cells. Background: A flow cytometer gives signals particle by particle.
Chain of rat α1β3γ2 GABAA receptor on HEK293T cells (P62813 28-455, chain 1 of 3): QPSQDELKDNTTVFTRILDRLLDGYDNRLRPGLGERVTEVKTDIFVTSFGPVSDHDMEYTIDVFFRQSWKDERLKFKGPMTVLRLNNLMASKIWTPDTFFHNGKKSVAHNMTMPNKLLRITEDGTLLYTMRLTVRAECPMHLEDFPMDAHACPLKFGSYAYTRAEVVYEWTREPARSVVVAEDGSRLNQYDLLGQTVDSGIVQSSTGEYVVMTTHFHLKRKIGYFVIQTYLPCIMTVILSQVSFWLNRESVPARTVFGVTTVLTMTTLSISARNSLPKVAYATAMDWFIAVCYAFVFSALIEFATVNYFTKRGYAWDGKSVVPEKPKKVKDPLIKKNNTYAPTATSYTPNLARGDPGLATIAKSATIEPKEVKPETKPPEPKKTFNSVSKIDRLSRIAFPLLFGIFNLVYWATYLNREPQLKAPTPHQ
Chain of rat α1β3γ2 GABAA receptor on HEK293T cells (P63079 26-473, chain 2 of 3): as the sequence (P63079 26-473) above
Chain of rat α1β3γ2 GABAA receptor on HEK293T cells (P18508 39-466, chain 3 of 3): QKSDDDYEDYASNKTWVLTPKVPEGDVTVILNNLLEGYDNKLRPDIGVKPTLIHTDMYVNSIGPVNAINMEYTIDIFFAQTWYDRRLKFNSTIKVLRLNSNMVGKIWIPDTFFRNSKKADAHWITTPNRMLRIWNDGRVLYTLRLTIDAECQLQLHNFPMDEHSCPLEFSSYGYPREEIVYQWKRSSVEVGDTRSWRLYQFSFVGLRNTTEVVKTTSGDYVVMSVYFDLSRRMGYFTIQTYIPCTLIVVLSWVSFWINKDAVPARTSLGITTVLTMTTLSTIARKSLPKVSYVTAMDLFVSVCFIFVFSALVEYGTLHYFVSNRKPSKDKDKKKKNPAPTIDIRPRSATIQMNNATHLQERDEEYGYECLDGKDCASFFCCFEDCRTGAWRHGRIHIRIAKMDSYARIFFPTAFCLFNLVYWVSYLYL
For test [10], the target named is human α1β3γ2 GABAA receptor on HEK293T cells (Homo sapiens, UniProt P14867;P28472;P18507). Briefly: flow cytometry on cells.
Test [11] addresses rat α1β3 GABAA receptor on HEK293T cells (Rattus norvegicus, UniProt P62813;P63079). Briefly: immunostaining of cells or tissue.

Chain of rodent α1β3γ2 GABAA receptor on COS7 cells (P62813 28-455, chain 1 of 3): as the sequence (P62813 28-455, chain 1 of 3) above
Chain of rodent α1β3γ2 GABAA receptor on COS7 cells (P63079 26-473, chain 2 of 3): as the sequence (P63079 26-473) above
Chain of rodent α1β3γ2 GABAA receptor on COS7 cells (P18508 39-466, chain 3 of 3): as the sequence (P18508 39-466, chain 3 of 3) above
Chain of rat α1β3 GABAA receptor on HEK293T cells (P62813 28-455, chain 1 of 2): as the sequence (P62813 28-455, chain 1 of 3) above
Chain of rat α1β3 GABAA receptor on HEK293T cells (P63079 26-473, chain 2 of 2): as the sequence (P63079 26-473) above
Chain of rodent α1β3 GABAA receptor on COS7 cells (P62813 28-455, chain 1 of 2): as the sequence (P62813 28-455, chain 1 of 3) above
Chain of rodent α1β3 GABAA receptor on COS7 cells (P63079 26-473, chain 2 of 2): as the sequence (P63079 26-473) above

B1: human monoclonal GABAAR antibody #113-115 (antibody, V domains shown)
VH: QVQLVQSGAEVKKPGASVKVSCKASGYTFISYDINWVRQATGQGLEWMGGMDPKSGNTGYAQKFQGRVTMTTNTAISTAYMELSSLRSEDTAVYYCVRGEQSYDRTGYSDWFDPWGQGTLVTVSS
VL: not shown
As for B1, the binding result in [1] was “binds”; in test [2] it was “binds”; in [3], “no binding (tested: 5 µg/ml)”; in test [4] it was “no binding (tested: 5 µg/ml)”; in test [5] it was “no binding (tested: 5 µg/ml)”; in [6], “no binding (tested: 5 µg/ml)”. For the same molecule, the binding result is given as “no binding (tested: 5 µg/ml)” in test [7]; “no binding (tested: 5 µg/ml)” in test [8]; “binds” in [9]; “binds” in [10]; “binds” in [11].

B2: human monoclonal GABAAR antibody #113-175 (antibody, V domains shown)
VH: EVQLLESGEGLVQPGGSLRLSCAASGFTFKTYAMSWVRQAPGKGLEWVSAISGSGASTYYADFVEGRFTISRDNSKNTLYLQMNSLRAEDTAVYYCAKEPPAMVWFGGGYFDYWGQGTLVTVSS
VL: EIVLTQSPATLSLSPGERATLSCRASQSVSSYLAWYQQKPGQAPRLLIYDASNRATGIPARFSGSGSGTDFTLTISSLEPEDFAVYYCQQRSNWPPYSFGQGTKLEIK
Regarding B2, the binding result in test [1] is listed as “binds”; in [2], “no binding (tested: 5 µg/ml)”; in test [3], “no binding (tested: 5 µg/ml)”; in test [4] it was “no binding (tested: 5 µg/ml)”; in [5] it was “no binding (tested: 5 µg/ml)”; in test [6], “no binding (tested: 5 µg/ml)”. The binding result in test [7] was “no binding (tested: 5 µg/ml)”; in test [8], “no binding (tested: 5 µg/ml)”; in test [9], “binds”; in test [10] it was “binds”; in test [11], “no binding”.

(Values after article PMC8480667 (The Journal of Experimental Medicine, 2021).)
